Legend:
CHO-S cells [1] = test: Western blot analysis of PH20 expression in media and cells after transient expression; type: cell-based, Chinese Hamster; conditions: media versus cells
In short: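 PH20 expression and solubility were judged by anti-PH20 Western blot of non-reduced media and cell fractions, with expression shown by a ~66 kDa band. Samples came from CHO-S cells transiently transfected (GeneJuice) with mutant PH20-HZ24 DNA and cultured 48-72 h. GPI-anchored mutants were cleaved with PI-PLC to release soluble protein.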

CHO-S cells [2] = test: PI-PLC treatment of expressing cells, Western blot of media and cells; type: cell-based, Chinese Hamster; conditions: cells incubated with PI-PLC for 2 hours
In short: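 CHO-S cells transiently expressing rHuPH20 or C-terminal truncation mutants were treated with PI-PLC (0.5 units/well, or 3.0 units/dish in serum/detergent-free medium) for 2 h at 37 °C after 48–72 h expression. Untreated and treated media and cell extracts were analysed separately by Western blot for PH20.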

[3] = Triton X-114 partition assay; type: physicochemical; conditions: partition into aqueous phase of Triton X-114 at 37° C.
[4] = Microtiter hyaluronidase activity assay with biotinylated-hyaluronic acid; type: biochemical; conditions: 72 hour post transfection supernatant
[5] = bHA enzymatic assay of PH20 transiently expressed in lectin resistant CHO mutants; type: biochemical; conditions: pH5.5; for PH20 Activity (1:27): 1:27 dilution; for PH20 Activity (1:81): 1:81 dilution
Protocol: (§1) In short, a 4×BH 96-well plate was coated with biotinylated-HA (1.1 MDa). The 72 hour post transfection supernatant from cells transfected with human PH20 hyaluronidase carboxy-terminus deletion mutants was diluted in buffer at either pH 7.4 or pH 5.5 and added to individual wells of the plate and allowed to incubate at 37° C. for 90 minutes. The reaction was terminated by addition of 4M guanidine HCl. The wells were washed 4× with Phosphate Buffered Saline with Tween20 (PBST) to remove any digested biotinylated-HA followed by addition of streptavidin-HRP for 1 hour at room temperature. The wells were washed 4× with PBST and the plate was developed with TMB. The plate was read at 450 nm using an ELISA plate reader. Hyaluronidase activity (in Units/mL) was determined by interpolating the measured absorbance at 450 nm with a hyaluronidase reference standard curve. Full length mature human PH20 hyaluronidase and untransfected CHO cells were used as positive and negative controls.
The resulting cell culture media was analyzed by Western blot analysis and hyaluronidase activity was measured using the biotinylated HA enzymatic assay (as described in Examples 3 and 5 above).

[6] = Hyaluronidase activity of N-glycan site specific deglycosylation mutants (biotinylated-HA assay); type: biochemical; conditions: media of transfected CHO-S cells
Protocol: as §1
PH20sHis (SEQ ID NO:210) was used as a template for mutagenesis of each asparagine residue to alanine using QuikChange® Site-Directed Mutagenesis Kit (Cat No. 200518, Stratagene). […] Six single mutants were generated, one for each of the N-glycosylation sites. Additionally, three double mutants and a triple mutant were generated for asparagines N82, N166 and N254, all of which are occupied by complex type glycans. Finally, a double mutant N368A/N393A was generated, lacking high mannose glycans. The mutants were transfected into CHO—S cells and expression was performed as described in Example 2A. Secretion into the media and hyaluronidase activity were determined as described in Examples 3 and 5, above.

[7] = Effect of glycosidase treatment on rHuPH20 hyaluronidase activity; type: biochemical; parameters: unit not given here
Protocol: as §1
Human PH20 hyaluronidase is glycosylated at six different asparagine residues, including N82, N166, N235, N254, N368, and N393. Five glycosidases were used to generate deglycosylated human PH20 hyaluronidase, including: PNGaseF (New England Biolabs, Cat. No. P0704S, Lot #34), which cleaves all N-glycans; EndoF1, which cleaves high mannose and hybrid type glycans; EndoF2, which cleaves biantennary complex type glycans; EndoF3, which cleaves biantennary and more branched complex glycans; and EndoH (New England Biolabs, Cat. No. P0702S), which cleaves high mannose and hybrid type glycans. Therefore, treatment with PNGaseF results in complete deglycosylation whereas treatment with endoglycosidases results in only partial deglycosylation.
For complete deglycosylation, purified rHuPH20 (0.1 mg/mL final concentration) was incubated with PNGaseF (50,000 units/mL) in 50 mM phosphate buffer pH 7.2 overnight at 37° C. For partial deglycosylation, purified rHuPH20 (0.5 mg/mL final concentration) was incubated with 0.3 units/mL of endoglycosidase (either EndoF1, EndoF2, EndoF3 or EndoH) or a mixture all four endoglycosidases in 50 mM sodium acetate buffer pH 5.0 overnight at 35° C. Deglycosylation of rHuPH20 was analyzed by the shift in the mobility of PH20 by SDS-PAGE. Hyaluronidase enzymatic activity was determined as described in Example 5.

B1: SPAM1-PSTL: C-terminally truncated human PH20, precursor 489 aa (SEQ ID NO:12), mature 454 aa (SEQ ID NO:64) (protein, listed as Homo sapiens)
chain 1: MGVLKFKHIFFRSFVKSSGVSQIVFTFLLIPCCLTLNFRAPPVIPNVPFLWAWNAPSEFCLGKFDEPLDMSLFSFIGSPRINATGQGVTIFYVDRLGYYPYIDSITGVTVNGGIPQKISLQDHLDKAKKDITFYMPVDNLGMAVIDWEEWRPTWARNWKPKDVYKNRSIELVQQQNVQLSLTEATEKAKQEFEKAGKDFLVETIKLGKLLRPNHLWGYYLFPDCYNHHYKKPGYNGSCFNVEIKRNDDLSWLWNESTALYPSIYLNTQQSPVAATLYVRNRVREAIRVSKIPDAKSPLPVFAYTRIVFTDQVLKFLSQDELVYTFGETVALGASGIVIWGTLSIMRSMKSCLLLDNYMETILNPYIINVTLAAKMCSQVLCQEQGVCIRKNWNSSDYLHLNPDNFAIQLEKGGKFTVRGKPTLEDLEQFSEKFYCSCYSTLSCKEKADVKDTDAVDVCIADGVCIDAFLKPPMETEEPQIFYNASPSTL
chain 2: LNFRAPPVIPNVPFLWAWNAPSEFCLGKFDEPLDMSLFSFIGSPRINATGQGVTIFYVDRLGYYPYIDSITGVTVNGGIPQKISLQDHLDKAKKDITFYMPVDNLGMAVIDWEEWRPTWARNWKPKDVYKNRSIELVQQQNVQLSLTEATEKAKQEFEKAGKDFLVETIKLGKLLRPNHLWGYYLFPDCYNHHYKKPGYNGSCFNVEIKRNDDLSWLWNESTALYPSIYLNTQQSPVAATLYVRNRVREAIRVSKIPDAKSPLPVFAYTRIVFTDQVLKFLSQDELVYTFGETVALGASGIVIWGTLSIMRSMKSCLLLDNYMETILNPYIINVTLAAKMCSQVLCQEQGVCIRKNWNSSDYLHLNPDNFAIQLEKGGKFTVRGKPTLEDLEQFSEKFYCSCYSTLSCKEKADVKDTDAVDVCIADGVCIDAFLKPPMETEEPQIFYNASPSTL
modifications: HuPH20 precursor 1-489; mature HuPH20 36-489
- Expressed in Media (CHO-S cells [1]): YES
- Expressed in Media Following Addition of PI-PLC (CHO-S cells [2]): Initially in media
- Soluble [3]: YES
- pH 5.5 Activity ([4]; Table 6): 1.089 Units/ml
- pH 7.4 Activity ([4]; Table 6): 1.557 Units/ml
- pH 5.5 Activity ([4]; Table 6A): 3.321 Units/ml
- pH 7.4 Activity ([4]; Table 6A): 1.985 Units/ml

B2: HZ24-PH20sHis: his-tagged PH20 (SEQ ID NO:187), human PH20 clone with HexaHis tag after amino acid S490 (protein)
chain: MGVLKFKHIFFRSFVKSSGVSQIVFTFLLIPCCLTLNFRAPPVIPNVPFLWAWNAPSEFCLGKFDEPLDMSLFSFIGSPRINATGQGVTIFYVDRLGYYPYIDSITGVTVNGGIPQKISLQDHLDKAKKDITFYMPVDNLGMAVIDWEEWRPTWARNWKPKDVYKNRSIELVQQQNVQLSLTEATEKAKQEFEKAGKDFLVETIKLGKLLRPNHLWGYYLFPDCYNHHYKKPGYNGSCFNVEIKRNDDLSWLWNESTALYPSIYLNTQQSPVAATLYVRNRVREAIRVSKIPDAKSPLPVFAYTRIVFTDQVLKFLSQDELVYTFGETVALGASGIVIWGTLSIMRSMKSCLLLDNYMETILNPYIINVTLAAKMCSQVLCQEQGVCIRKNWNSSDYLHLNPDNFAIQLEKGGKFTVRGKPTLEDLEQFSEKFYCSCYSTLSCKEKADVKDTDAVDVCIADGVCIDAFLKPPMETEEPQIFYNASPSTLSHHHHHH
modifications: His6 tag; PH20sHis
- PH20 Activity (1:27) ([5]; expressed in Lec1 cells): 0.54 U/mL
- PH20 Activity (1:81) ([5]; expressed in Lec1 cells): 0.7695 U/mL
- PH20 Activity (1:27) ([5]; expressed in Lec2 cells): 0.675 U/mL
- PH20 Activity (1:81) ([5]; expressed in Lec2 cells): 1.053 U/mL
- PH20 Activity (1:27) ([5]; expressed in Lec8 cells): 0.2565 U/mL
- PH20 Activity (1:81) ([5]; expressed in Lec8 cells): 0.567 U/mL
- PH20 Activity (1:27) ([5]; expressed in Pro-5 cells): 0.297 U/mL
- PH20 Activity (1:81) ([5]; expressed in Pro-5 cells): 0.6075 U/mL
- Activity pH 5.5 ([6]; pH 5.5): YES
- Activity pH 7.4 ([6]; pH 7.4): YES

B3: PNGaseF: purified rHuPH20 incubated with PNGaseF (complete deglycosylation) (protein, listed as Homo sapiens)
chain: LNFRAPPVIPNVPFLWAWNAPSEFCLGKFDEPLDMSLFSFIGSPRINATGQGVTIFYVDRLGYYPYIDSITGVTVNGGIPQKISLQDHLDKAKKDITFYMPVDNLGMAVIDWEEWRPTWARNWKPKDVYKNRSIELVQQQNVQLSLTEATEKAKQEFEKAGKDFLVETIKLGKLLRPNHLWGYYLFPDCYNHHYKKPGYNGSCFNVEIKRNDDLSWLWNESTALYPSIYLNTQQSPVAATLYVRNRVREAIRVSKIPDAKSPLPVFAYTRIVFTDQVLKFLSQDELVYTFGETVALGASGIVIWGTLSIMRSMKSCLLLDNYMETILNPYIINVTLAAKMCSQVLCQEQGVCIRKNWNSSDYLHLNPDNFAIQLEKGGKFTVRGKPTLEDLEQFSEKFYCSCYSTLSCKEKADVKDTDAVDVCIADGVCIDAFLKPPMETEEPQIFY
modifications: N-glycans removed by PNGaseF; soluble rHuPH20 36-482
- rHuPH20 activity after glycosidase treatment (assay readout) ([7]; rHuPH20 0.0080 U/ml): 1.9172
- rHuPH20 activity after glycosidase treatment (assay readout) ([7]; rHuPH20 0.0400 U/ml): 1.9926
- rHuPH20 activity after glycosidase treatment (assay readout) ([7]; rHuPH20 0.2000 U/ml): 1.9173
- rHuPH20 activity after glycosidase treatment (assay readout) ([7]; rHuPH20 1.0000 U/ml): 1.9315

B4: HZ24-mut(B/S): plasmid encoding PH20 truncated at amino acid 482, SEQ ID NO:122 (protein, listed as Homo sapiens)
chain: B3 chain
modifications: soluble rHuPH20 36-482
- PH20 Activity (1:27) ([5]; expressed in Pro-5 cells): 0.6615 U/mL
- PH20 Activity (1:81) ([5]; expressed in Pro-5 cells): 1.1745 U/mL

— patent US9284543B2, “Neutral active soluble truncated PH20 polypeptides and uses thereof” (Halozyme, Inc., priority 2008, dated 2016)
